One protein from paper PMC4759655 (Immunity, 2016) can be followed below.

This series concerns the molecule itself. Description: cross-linking.

B1: CD45 protein tyrosine phosphatase (receptor, UniProt P06800 26-1293, looked up)
chain: QTPTPSDELSTTENALLLPQSDPLPARTTESTPPSISERGNGSSETTYHPGVLSTLLPHLSPQPDSQTPSAGGADTQTFSSQADNPTLTPAPGGGTDPPGVPGERTVPGTIPADTAFPVDTPSLARNSSAASPTHTSNVSTTDISSGASLTTLTPSTLGLASTDPPSTTIATTTKQTCAAMFGNITVNYTYESSNQTFKADLKDVQNAKCGNEDCENVLNNLEECSQIKNISVSNDSCAPATTIDLYVPPGTDKFSLHDCTPKEKANTSICLEWKTKNLDFRKCNSDNISYVLHCEPENNTKCIRRNTFIPERCQLDNLRAQTNYTCVAEILYRGVKLVKNVINVQTDLGIPETPKPSCGDPAARKTLVSWPEPVSKPESASKPHGYVLCYKNNSEKCKSLPNNVTSFEVESLKPYKYYEVSLLAYVNGKIQRNGTAEKCNFHTKADRPDKVNGMKTSRPTDNSINVTCGPPYETNGPKTFYILVVRSGGSFVTKYNKTNCQFYVDNLYYSTDYEFLVSFHNGVYEGDSVIRNESTNFNAKALIIFLVFLIIVTSIALLVVLYKIYDLRKKRSSNLDEQQELVERDDEKQLMDVEPIHSDILLETYKRKIADEGRLFLAEFQSIPRVFSKFPIKDARKPHNQNKNRYVDILPYDYNRVELSEINGDAGSTYINASYIDGFKEPRKYIAAQGPRDETVDDFWRMIWEQKATVIVMVTRCEEGNRNKCAEYWPSMEEGTRAFKDIVVTINDHKRCPDYIIQKLNVAHKKEKATGREVTHIQFTSWPDHGVPEDPHLLLKLRRRVNAFSNFFSGPIVVHCSAGVGRTGTYIGIDAMLEGLEAEGKVDVYGYVVKLRRQRCLMVQVEAQYILIHQALVEYNQFGETEVNLSELHSCLHNMKKRDPPSDPSPLEAEYQRLPSYRSWRTQHIGNQEENKKKNRNSNVVPYDFNRVPLKHELEMSKESEPESDESSDDDSDSEETSKYINASFVMSYWKPEMMIAAQGPLKETIGDFWQMIFQRKVKVIVMLTELVNGDQEVCAQYWGEGKQTYGDMEVEMKDTNRASAYTLRTFELRHSKRKEPRTVYQYQCTTWKGEELPAEPKDLVSMIQDLKQKLPKASPEGMKYHKHASILVHCRDGSQQTGLFCALFNLLESAETEDVVDVFQVVKSLRKARPGVVCSYEQYQFLYDIIASIYPAQNGQVKKTNSQDKIEFHNEVDGGKQDANCVRPDGPLNKAQEDSRGVGTPEPTNSAEEPEHAANGSASPAPTQSS
The term stoichiometry N denotes a count of units in the complex or per binding partner. Consider B1, for which the “stoichiometry N” value worked out at 2.
